The record followed here is patent publication JP2004500847A (dated 2004).

Test [1] deals with T1, human MHC class II DR protein (DRA*0101/DRB1*0401) purified from Priess cells (human, UniProt P01903 26-254; P01911 30-266, limits assumed).
T1 construct: mature; Native heterodimer isolated from cell lysate; Coated on ELISA plates or coupled to a BIAcore CM5 chip; also called HLA-DR protein; MHC-class II DRA*0101/DRB1*0401
T1 MHC II alpha: not shown
T1 MHC II beta: not shown
Kind of test: SPR (Biacore), DR protein on the chip. (In general: Surface plasmon resonance follows binding to a sensor surface in real time, without labels.)

Test [2] deals with HLA-DR on HLA-DR-positive cell lines (GRANTA-519, MHH-CALL4, Priess or LG2; allotype not stated) (human). As to the kind of experiment: cell-based or functional assay.
The target in test [3] is HLA-DR on the human B lymphoblastoid cell line LG-2 (human). As to the kind of experiment: flow cytometry on LG-2 cells, 35 ug Fab first; competitor 1-1C4 (2 ug). A general note: A flow cytometer gives signals particle by particle.

Several values for one entry are separate records, joined by “and”; a condition that tells them apart may be missing. Identical values can stand only once.

By Kd is commonly meant the constant that tells how readily two partners part at equilibrium. Read a low Kd as a tighter complex.

B1: MS-GPC-8-Fab (Fab, V domains shown)
VH: QVQLKESGPALVKPTQTLTLTCTFSGFSLSTSGVGVGWIRQPPGKALEWLALIDWDDDKYYSTSLKTRLTISKDTSKNQVVLTMTNMDPVDTATYYCARSPRYRGAFDYWGQGTLVTVSS
VL: DIVLTQPPSVSGAPGQRVTISCSGSSSNIGSNYVSWYQQLPGTAPKLLIYDNNQRPSGVPDRFSGSKSGTSASLAITGLQSEDEADYYCQSYDMPQAVFGGGTKLTVLG
Regarding B1, binding in test [1] was put at a Kd of 346 nM. Further, in test [2], the EC50 of cell killing (Priess or LG2 cells), as concentration of the bivalent cross-linked (Fab) dimer is < 60 nM; the EC50 of cell killing (Priess or LG2 cells), as concentration of the monovalent fragment, cross-linked with anti-FLAG M2 is < 120 nM; the EC50 of cell killing (concentration of the bivalent cross-linked Fab dimer; cell line not named here) is 20 nM and 40 nM; the maximal killing of MHH-CALL 4 cells worked out at 65%. Besides, in test [3], the decrease of binding of the mouse antibody worked out at 50%.
